B1: scVEGF-mE7I (SEQ ID NO: 75), construct with the original linker (ligand)
chain: EVVKAMDVYQRSYCHPIETLVDILQEYPDEIGYIFKPSCVPLMRCGGCCNGAGLECVPTEESNITMQIMRIKPHRGQHIGEMSFLQHNKCECRPKKDGGGGSGGGGSGGGGSGGGGSEVVRFMDVYQRSYCHPIETLVDIFQEYPNEIEYAFKPSCVPLMRCGGCCNNEGLECVPTEESNITMQIMRPSVRRGDSPASHIGEMSFLQHNKCECRPKKD
B2: scVEGFMUT-E (mE, SEQ ID NO.: 55) (ligand)
chain: EVVKAMDVYQRSYCHPIETLVDILQEYPDEIGYIFKPSCVPLMRCGGCCNGAGLECVPTEESNITMQIMRIKPHRGQHIGEMSFLQHNKCECRPKKDGSTSGSGKSSEGKGEVVRFMDVYQRSYCHPIETLVDIFQEYPNEIEYAFKPSCVPLMRCGGCCNNEGLECVPTEESNITMQIMRAKPHQGQHIGEMSFLQHNKCECRPKKD
notes: Chain 1: F36L, E44G, D63G, Q87R; also called scVEGFmE
B3: scVEGF-mE7I construct containing the L3A linker (ligand)
chain: B1 chain

What was measured:
[1] = target: human endothelial cells (HUVECs); assay: cell binding assay on human endothelial cells
[2] = target: T1, VEGFR1 (on PAE-VEGFR1 cells) (UniProt P17948 27-1338, limits assumed); assay: binding to PAE-VEGFR1 cells; the column prints only 'VEGFR1 (nM)', the text calls it an affinity
T1 construct: whole, on cells
T1 sequence (P17948 27-1338 limits assumed): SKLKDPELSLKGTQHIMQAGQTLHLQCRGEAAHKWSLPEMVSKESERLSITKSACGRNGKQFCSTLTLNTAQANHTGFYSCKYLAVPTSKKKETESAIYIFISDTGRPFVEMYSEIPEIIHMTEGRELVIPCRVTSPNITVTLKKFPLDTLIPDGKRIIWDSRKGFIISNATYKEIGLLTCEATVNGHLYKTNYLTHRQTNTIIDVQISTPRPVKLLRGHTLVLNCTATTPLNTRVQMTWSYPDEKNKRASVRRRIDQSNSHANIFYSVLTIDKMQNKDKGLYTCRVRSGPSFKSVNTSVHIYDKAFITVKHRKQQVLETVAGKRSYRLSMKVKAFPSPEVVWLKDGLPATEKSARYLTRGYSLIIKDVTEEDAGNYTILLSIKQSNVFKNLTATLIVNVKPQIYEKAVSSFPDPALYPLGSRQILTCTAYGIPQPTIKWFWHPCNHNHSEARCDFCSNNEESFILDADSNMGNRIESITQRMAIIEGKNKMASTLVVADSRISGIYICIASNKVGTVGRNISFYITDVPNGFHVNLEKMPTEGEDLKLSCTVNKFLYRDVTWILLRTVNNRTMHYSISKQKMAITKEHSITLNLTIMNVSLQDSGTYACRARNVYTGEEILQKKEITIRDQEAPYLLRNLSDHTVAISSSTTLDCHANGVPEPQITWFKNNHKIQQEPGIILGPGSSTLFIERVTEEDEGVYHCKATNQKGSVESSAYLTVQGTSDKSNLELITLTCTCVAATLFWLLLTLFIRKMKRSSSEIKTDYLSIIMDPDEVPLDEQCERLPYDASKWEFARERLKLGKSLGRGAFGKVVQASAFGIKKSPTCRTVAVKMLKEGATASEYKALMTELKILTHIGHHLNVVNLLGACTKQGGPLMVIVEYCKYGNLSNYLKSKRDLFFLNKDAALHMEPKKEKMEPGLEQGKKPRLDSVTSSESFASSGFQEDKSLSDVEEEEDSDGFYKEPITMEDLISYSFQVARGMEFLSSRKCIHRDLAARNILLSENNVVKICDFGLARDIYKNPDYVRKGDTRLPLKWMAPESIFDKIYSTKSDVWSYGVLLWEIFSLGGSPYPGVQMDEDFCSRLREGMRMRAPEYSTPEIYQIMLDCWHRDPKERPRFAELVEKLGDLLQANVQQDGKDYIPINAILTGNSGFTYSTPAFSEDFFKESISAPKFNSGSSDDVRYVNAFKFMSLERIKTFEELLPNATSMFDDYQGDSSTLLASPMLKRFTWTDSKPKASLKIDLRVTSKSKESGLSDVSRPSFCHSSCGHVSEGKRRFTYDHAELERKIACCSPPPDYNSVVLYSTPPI

[3] = target: human endothelial cells (HUVECs); assay: binding to HUVEC; the column prints only 'HUVEC (nM)'
[4] = target: T2, VEGFR2 (on PAE-VEGFR2 cells) (UniProt P35968 20-1356, limits assumed); assay: binding to PAE-VEGFR2 cells; the column prints only 'VEGFR2 (nM)'
T2 construct: whole, on cells
T2 sequence (P35968 20-1356 limits assumed): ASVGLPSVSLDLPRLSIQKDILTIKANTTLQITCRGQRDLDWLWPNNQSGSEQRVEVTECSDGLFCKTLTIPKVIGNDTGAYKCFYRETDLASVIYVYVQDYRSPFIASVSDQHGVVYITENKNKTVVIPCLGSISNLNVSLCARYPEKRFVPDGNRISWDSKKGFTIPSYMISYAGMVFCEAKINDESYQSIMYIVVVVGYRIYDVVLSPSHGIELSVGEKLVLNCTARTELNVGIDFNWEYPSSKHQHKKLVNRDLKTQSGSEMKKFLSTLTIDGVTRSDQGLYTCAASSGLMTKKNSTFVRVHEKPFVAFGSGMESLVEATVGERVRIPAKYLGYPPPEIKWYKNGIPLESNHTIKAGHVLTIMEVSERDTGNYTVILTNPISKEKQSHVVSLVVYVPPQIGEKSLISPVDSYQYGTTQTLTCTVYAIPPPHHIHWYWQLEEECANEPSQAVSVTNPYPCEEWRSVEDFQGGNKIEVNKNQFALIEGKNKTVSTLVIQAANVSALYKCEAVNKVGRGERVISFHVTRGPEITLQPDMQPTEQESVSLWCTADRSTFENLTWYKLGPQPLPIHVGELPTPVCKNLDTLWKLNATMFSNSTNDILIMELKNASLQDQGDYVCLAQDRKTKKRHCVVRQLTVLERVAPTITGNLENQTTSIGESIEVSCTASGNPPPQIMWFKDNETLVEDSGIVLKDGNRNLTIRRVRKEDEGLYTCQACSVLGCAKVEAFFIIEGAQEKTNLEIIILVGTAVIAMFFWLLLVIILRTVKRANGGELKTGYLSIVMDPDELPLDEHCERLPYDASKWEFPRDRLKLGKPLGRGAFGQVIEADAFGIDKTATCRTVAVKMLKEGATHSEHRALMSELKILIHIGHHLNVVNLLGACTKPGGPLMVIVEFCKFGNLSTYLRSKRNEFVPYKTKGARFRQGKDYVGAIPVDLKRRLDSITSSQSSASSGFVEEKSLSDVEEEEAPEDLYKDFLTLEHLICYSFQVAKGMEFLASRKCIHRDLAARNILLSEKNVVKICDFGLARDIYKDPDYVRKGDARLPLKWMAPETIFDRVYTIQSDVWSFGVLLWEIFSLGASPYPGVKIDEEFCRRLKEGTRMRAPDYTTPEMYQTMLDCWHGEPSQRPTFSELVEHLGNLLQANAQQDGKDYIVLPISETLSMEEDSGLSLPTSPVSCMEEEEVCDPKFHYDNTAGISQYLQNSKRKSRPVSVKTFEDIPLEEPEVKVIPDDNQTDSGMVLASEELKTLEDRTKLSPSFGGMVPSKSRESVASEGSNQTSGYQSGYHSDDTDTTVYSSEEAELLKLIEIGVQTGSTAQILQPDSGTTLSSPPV

Row | Binder | Kd [1] [nM] | Kd [2] [nM] | Kd [3] [nM] | Kd [4] [nM] | fold improvement of KD against the construct with the original linker [1] [fold]
1 | B1 | 0.32 |  |  |  | 
2 | B2 |  | 0.55 | 0.4 | 0.5 | 
3 | B3 | 0.16 |  |  |  | 2
